Experimental data reported in article PMC3424542.
Numbering of substitutions follows the chain as printed.

T1: XtrLin28b CSD (Xenopus tropicalis, UniProt B4F6I0 27-114)
T1 sequence: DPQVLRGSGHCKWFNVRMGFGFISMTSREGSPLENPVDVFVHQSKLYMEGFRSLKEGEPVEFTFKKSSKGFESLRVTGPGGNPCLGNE

T2: XtrLin28b CSD W39A (Xenopus tropicalis, UniProt B4F6I0 27-114, W39A)
T2 sequence: T1 sequence with W13A

T3: XtrLin28b CSD F66A (Xenopus tropicalis, UniProt B4F6I0 27-114, F66A)
T3 sequence: T1 sequence with F40A

T4: XtrLin28b CSD F48A (Xenopus tropicalis, UniProt B4F6I0 27-114, F48A)
T4 sequence: T1 sequence with F22A

T5: XtrLin28b ZKD Y133A (Xenopus tropicalis, UniProt B4F6I0 125-175, Y133A)
T5 sequence: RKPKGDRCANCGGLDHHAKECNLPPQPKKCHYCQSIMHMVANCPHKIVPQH

T6: XtrLin28b ZKD (Xenopus tropicalis, UniProt B4F6I0 125-175)
T6 sequence: T5 sequence with A9Y

T7: XtrLin28b ZKD H155A (Xenopus tropicalis, UniProt B4F6I0 125-175, H155A)
T7 sequence: T5 sequence with A9Y, H31A

T8: XtrLin28b CSD H68A (Xenopus tropicalis, UniProt B4F6I0 27-114, H68A)
T8 sequence: T1 sequence with H42A

T9: XtrLin28b CSD F77A (Xenopus tropicalis, UniProt B4F6I0 27-114, F77A)
T9 sequence: T1 sequence with F51A

B1: dG2 (ssDNA)
DNA: TGTTTTT
B2: dA4 (ssDNA)
DNA: TTTATTT
B3: dC5 (ssDNA)
DNA: TTTTCTT
B4: dC3 (ssDNA)
DNA: TTCTTTT
B5: dC2 (ssDNA)
DNA: TCTTTTT
B6: dG5 (ssDNA)
DNA: TTTTGTT
B7: dA3 (ssDNA)
DNA: TTATTTT
B8: dA2 (ssDNA)
DNA: TATTTTT
B9: dA7 (heptaadenosine) (ssDNA)
DNA: AAAAAAA
B10: dT6 (ssDNA)
DNA: TTTTTT
B11: dG4 (ssDNA)
DNA: TTTGTTT
B12: dT7 (ssDNA)
DNA: TTTTTTT
B13: dG7 (position 7) (ssDNA)
DNA: TTTTTTG
B14: dG3 (ssDNA)
DNA: TTGTTTT
B15: dA7 (position 7) (ssDNA)
DNA: TTTTTTA
B16: dG1 (ssDNA)
DNA: GTTTTTT
B17: dC4 (ssDNA)
DNA: TTTCTTT
B18: dA1 (ssDNA)
DNA: ATTTTTT
B19: dT8 (ssDNA)
DNA: TTTTTTTT
B20: dG6 (ssDNA)
DNA: TTTTTGT
B21: dC6 (ssDNA)
DNA: TTTTTCT
B22: dC7 (ssDNA)
DNA: TTTTTTC
B23: dA5 (ssDNA)
DNA: TTTTATT
B24: dG7 (heptaguanosine) (ssDNA)
DNA: GGGGGGG
B25: dT9 (ssDNA)
DNA: TTTTTTTTT
B26: dC1 (ssDNA)
DNA: CTTTTTT
B27: dA6 (ssDNA)
DNA: TTTTTAT
B28: dT5 (ssDNA)
DNA: TTTTT
B29: rlet-7f5 (ssRNA)
RNA: GUCACACC
B30: rZ1 (ssRNA)
RNA: AAGGAGAA
B31: rZ6 (ssRNA)
RNA: AAGGAAAA
B32: rA8 (ssRNA)
RNA: AAAAAAAA
B33: rZ7 (ssRNA)
RNA: AAAGAAAA
B34: rZ2 (ssRNA)
RNA: AAGGUGAA
B35: rZ4 (ssRNA)
RNA: AAGAAGAA
B36: rU7 (ssRNA)
RNA: UUUUUUU
B37: rZ3 (ssRNA)
RNA: AAAGAGAA
B38: rZ8 (ssRNA)
RNA: AAGGGGAA
B39: rlet-7f (rlet-7f0) (ssRNA)
RNA: GUCACAC
B40: rlet-7f4 (ssRNA)
RNA: GGUCACAC
B41: rlet-7f1 (ssRNA)
RNA: GUCAUAC
B42: rlet-7f6 (ssRNA)
RNA: GGUCACACC
B43: rG1b (ssRNA)
RNA: GUCUUUU
B44: rGA6 (ssRNA)
RNA: GAAAAAA
B45: rG1 (ssRNA)
RNA: GUUUUUU
B46: rlet-7f2 (ssRNA)
RNA: GUCAAAC
B47: rlet-7f3 (ssRNA)
RNA: GACAAAC

What follows are binders tested against T1, XtrLin28b CSD (assay: Trp fluorescence titration).

Compared with B1, B2 is 3.2-fold higher in Kd: 39 ± 4 nM for the first, 124 ± 12 nM for the second. The first binds more tightly here.

Going from B3 to B4, the Kd falls from 154 ± 26 nM to 71 ± 3 nM (2.2-fold). The second binds more tightly here.

Compared with B5, B6 is 3-fold lower in Kd: 137 ± 22 nM for the first, 45 ± 4 nM for the second.

First: B7
Second: B8
The Kd of the first is 2.3-fold lower: 137 ± 10 nM for the first, 311 ± 24 nM for the second.

B10 and B11 are within 1.5-fold of each other in Kd: 169 ± 30 nM for the first, 119 ± 16 nM for the second.

B12 and B13 are within 1.5-fold of each other in Kd: 59 ± 5 nM for the first, 80 ± 10 nM for the second.

B14 and B15 are within 1.5-fold of each other in Kd: 139 ± 8 nM for the first, 113 ± 15 nM for the second.

Going from B16 to B17, the Kd rises from 12 ± 1 nM to 73 ± 6 nM (6.1-fold).

Compared with B18, B19 is 2.6-fold lower in Kd: 84 ± 5 nM for the first, 32 ± 1 nM for the second.

B20 and B21 are within error of each other in Kd: 81 ± 10 nM for the first, 87 ± 14 nM for the second.

First: B22
Second: B23
The Kd of the first is 3-fold lower: 59 ± 4 nM for the first, 176 ± 8 nM for the second. The first binds more tightly here.

B25 and B26 are within error of each other in Kd: 44 ± 3 nM for the first, 45 ± 4 nM for the second.

Going from B27 to B28, the Kd rises from 147 ± 15 nM to 680 ± 40 nM (4.6-fold). The first binds more tightly here.

B9: no binding.
B24: no binding.

These binders were tested against T2, XtrLin28b CSD W39A (assay: ITC).

B29 showed a Kd of 1130 ± 110 nM.

The binders below were run against T3, XtrLin28b CSD F66A (assay: ITC).

In the case of B29, the Kd is reported as 1440 ± 200 nM.

Each binder was assayed against T4, XtrLin28b CSD F48A (assay: ITC).

B29 was tested, and the Kd was 1610 ± 340 nM.

These binders were tested against T5, XtrLin28b ZKD Y133A (assay: ITC).

B30 showed a Kd of 2200 ± 700 nM.

What follows are binders tested against T6, XtrLin28b ZKD (assay: ITC).

B31: no binding.
B32: no binding.
B36: no binding.
B38: no binding.

Compared with B33, B34 is 210-fold lower in Kd: 6800 ± 2100 nM for the first, 32 ± 2 nM for the second.

Compared with B35, B37 is 3-fold lower in Kd: 600 ± 170 nM for the first, 200 ± 30 nM for the second.

B30 was tested, and the Kd was 45 ± 4 nM.

Each binder was assayed against T1, XtrLin28b CSD (assay: ITC).

B39 and B40 are within 1.5-fold of each other in Kd: 46 ± 3 nM for the first, 66 ± 9 nM for the second.

First: B36
Second: B41
The Kd of the first is 41-fold higher: 530 ± 65 nM for the first, 13 ± 2 nM for the second. The second binds more tightly here.

B42 and B43 are within error of each other in Kd: 21 ± 4 nM for the first, 27 ± 3 nM for the second.

Going from B29 to B45, the Kd rises from 18 ± 2 nM to 35 ± 2 nM (1.9-fold). The first binds more tightly here.

Going from B46 to B47, the Kd rises from 54 ± 9 nM to 1360 ± 600 nM (25-fold).

B44: no binding.

Each binder was assayed against T7, XtrLin28b ZKD H155A (assay: ITC).

For B30, the Kd was 2600 ± 600 nM.

The binders below were run against T8, XtrLin28b CSD H68A (assay: ITC).

Work on B29 yielded a Kd of 540 ± 50 nM.

The binders below were run against T9, XtrLin28b CSD F77A (assay: ITC).

Binder B29 has a Kd of 1180 ± 60 nM.
